For data set [1], the target named is T1, tPA (Homo sapiens, UniProt P00750). Description: Plasminogen-activation assay (tPA activation, S-2251). Format: biochemical. The note with it: β2GPI preparations, 100 μg ml^−1. On the procedure:
Plasmin (Pls) activity was assayed as described^16. Peptides and proteins that were tested for their stimulatory ability were regularly used at 100 μg ml^−1. […] Chromogenic substrate S-2251 (Chromogenix, Instrumentation Laboratory SpA, Milano, Italy) was used to measure Pls activity. Conversion of zymogen factor XII (#233490, Calbiochem, EMD Biosciences, Inc., San Diego, Calif.) to proteolytically active factor XII (factor XIIa) was assayed by measurement of the conversion of chromogenic substrate Chromozym-PK (Roche Diagnostics, Almere, The Netherlands) by kallikrein. Chromozym-PK was used at a concentration of 0.3 mM. […] The conversion of Chromozym-PK was recorded kinetically at 37° C. for at least 60 minutes. […]
Formulated protein therapeutics were obtained from the local hospital pharmacy and were used as supplied by the manufacturers. […] Enhancement in fluorescence of ThT and Congo red was measured with all formulated protein therapeutics. […]
(§1) To prepare structurally altered ovalbumin (OVA) with amyloid cross-β structures, purified OVA (Sigma, A-7641, lot 071k7094) was heated to 85° C. […] Native OVA (nOVA) and heat-denatured OVA (dOVA) were tested in the ThT fluorescence assay and in the Plg-activation assay. In the fluorescence assay and in the Plg-activation assay, 25 and 100 μg ml^−1 nOVA and dOVA were tested, respectively. […]

Data set [2] in a line: Thioflavin T fluorescence of protein solutions. Format: physicochemical. The note with it: after exposure to CL or DXS500k. On the procedure: Fluorescence of ThT—protein/peptide adducts was measured as follows. […] Fluorescence was measured at 485 nm upon excitation at 435 nm. Background signals from buffer, buffer with ThT and protein/peptide solution without ThT were subtracted from corresponding measurements with protein solution incubated with ThT. Regularly, fluorescence of Aβ was used as a positive control, and fluorescence of FP10, a non-amyloid fibrin fragment^16, was used as a negative control. Fluorescence was measured in triplicate on a Hitachi F-4500 fluorescence spectrophotometer (Ltd., Tokyo, Japan).
Formulated protein therapeutics were obtained from the local hospital pharmacy and were used as supplied by the manufacturers. […] Lyophilized therapeutics were dissolved according to the manufacturers recommendations. GH, zinc-insulin, Cealb and gelatin were stored at −20, 4, room temperature, 37 and 65° C. Other protein therapeutics were only kept at 4° C., and assayed for the presence of cross-β structure at shown time points. Enhancement in fluorescence of ThT and Congo red was measured with all formulated protein therapeutics. […]
ThT fluorescence of β2GPI was measured as follows. […] In the ThT fluorescence assay, fluorescence of β2GPI in buffer, of CL or DXS500k in buffer, of buffer and ThT alone, and of β2GPI-CL adducts and β2GPI-DXS500k adducts, with or without ThT, was recorded as described above (section ThT fluorescence). In addition, TEM images were recorded with CL, β2GPI from human plasma, with or without CL, and with recombinant β2GPI, as described^5.
as §1
MSA (#126674, Calbiochem) was dissolved in 8 M urea, 100 mM Tris-HCl pH 8.2, at 10 mg ml^−1 final concentration. […] The presence of aggregates or fibrils was analyzed using TEM. […]

Data set [3] concerns the target T1, tPA. Description: ELISA, binding of β2GPI to immobilized tPA. How it is done:
(§2) Binding of purified human factor XII from plasma (Calbiochem) or of purified recombinant human tPA to β2GPI purified from human plasma, or to recombinant human β2GPI was tested in an ELISA. Ten μg of factor XII or tPA in PBS was coated onto wells of a Costar 2595 ELISA plate (Cambridge, USA) and incubated with concentration series of the two β2GPI preparations. Binding of β2GPI was assessed with monoclonal antibody 2B2^22.

A further data set has as its target T2, factor XII (Homo sapiens, UniProt P00748).
T2 construct: purified human factor XII from plasma (Calbiochem); purchased Calbiochem; host or cells: human plasma
T2 sequence (P00748 20-615): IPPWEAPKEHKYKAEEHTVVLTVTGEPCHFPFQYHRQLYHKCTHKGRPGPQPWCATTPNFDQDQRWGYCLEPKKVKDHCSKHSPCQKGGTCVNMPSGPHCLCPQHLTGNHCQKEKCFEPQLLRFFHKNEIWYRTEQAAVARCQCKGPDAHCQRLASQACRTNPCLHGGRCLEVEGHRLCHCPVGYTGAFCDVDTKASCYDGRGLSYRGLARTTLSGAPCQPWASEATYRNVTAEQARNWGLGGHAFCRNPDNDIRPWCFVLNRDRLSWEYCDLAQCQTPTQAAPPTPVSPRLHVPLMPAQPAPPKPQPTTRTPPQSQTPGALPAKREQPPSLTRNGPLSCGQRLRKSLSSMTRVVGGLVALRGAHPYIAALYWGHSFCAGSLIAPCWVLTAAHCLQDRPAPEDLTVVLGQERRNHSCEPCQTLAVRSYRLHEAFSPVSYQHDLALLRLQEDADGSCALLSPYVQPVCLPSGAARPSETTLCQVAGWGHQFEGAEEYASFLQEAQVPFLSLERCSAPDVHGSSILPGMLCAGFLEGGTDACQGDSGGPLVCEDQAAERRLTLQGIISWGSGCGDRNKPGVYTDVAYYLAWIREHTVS
Kind of data set: ELISA, binding of β2GPI to immobilized factor XII. On the procedure:
as §2

Data set [4] deals with T1, tPA. Description: tPA/plasminogen activation assay. The class given is biochemical. The note with it: β2gpi exposed to cardiolipin or alkylated, 100 μg/ml. How it is done:
β2-GPI was reduced and alkylated as follows. Sixhundredforty μl of β2-GPI stock was mixed with 640 μl of 8 M Urea (cooled solution) in 0.1 M Tris pH-8.2. The solution was degassed with N2 gas for approximately 6 minutes. From a 1 M DTT stock 12.8 μl was added to the solution, mixed and incubated for 3 hours at room temperature. A 1 M Iodoacetamide (Sigma; I-6125) was prepared, of which 25.6 μl was added to the β2-GPI reaction mixture. The solution was subsequently dialysed against PBS. […] Signals obtained with alkyl-β2gpi are compared with those obtained with native β2gpi starting material and with positive control acid/heat denatured amyloid-like misfolded γ-globulins.
Exiqon Peptide Immobilizer plates were blocked for 1 hour with PBS, 1% Tween20 and rinsed twice with distilled water. The conversion of the chromogenic substrate S-2251 (Chromogenix, Italy) by plasmin was kinetically measured at 37° C. on a Spectramax340 microplate reader at a wavelength of 405 nm. […] Denatured γ-globulins (100 μg/ml) with amyloid-like structure was used as reference and positive control. Lyophilized γ-globulins (Sigma, Mo., USA) were dissolved in a 1(:)1 volume ratio of 1,1,1,3,3,3-hexafluoro-2-propanol and trifluoro-acetic acid and subsequently dried under air. […]
Protein therapeutics were obtained from the local hospital pharmacy and analyzed within the expiry limits as stated by the manufacturers.

This note sets out measurements from patent US20080220446A1, “Method for Detecting and/or Removing Protein and/or Peptide Comprising a Cross-Beta Structure From an Aqueous Solution Comprising a Protein” (priority 2005, published 2008).

T1 sequence (P00750 36-562): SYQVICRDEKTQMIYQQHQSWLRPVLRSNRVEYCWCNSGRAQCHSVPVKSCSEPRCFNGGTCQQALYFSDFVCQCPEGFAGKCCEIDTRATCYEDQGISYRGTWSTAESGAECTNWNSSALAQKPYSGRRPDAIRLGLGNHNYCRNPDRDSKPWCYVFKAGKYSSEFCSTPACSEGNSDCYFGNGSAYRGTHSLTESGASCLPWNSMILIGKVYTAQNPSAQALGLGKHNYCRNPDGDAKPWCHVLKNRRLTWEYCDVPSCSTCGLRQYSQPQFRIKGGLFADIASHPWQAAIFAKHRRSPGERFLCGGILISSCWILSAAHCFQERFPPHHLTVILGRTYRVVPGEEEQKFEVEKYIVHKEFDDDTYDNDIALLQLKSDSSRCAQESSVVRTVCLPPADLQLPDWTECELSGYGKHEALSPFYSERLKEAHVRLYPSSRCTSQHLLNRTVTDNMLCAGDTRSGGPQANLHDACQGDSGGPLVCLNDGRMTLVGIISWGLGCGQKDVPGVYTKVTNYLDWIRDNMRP

B1: β2GPI purified from fresh plasma: β2-glycoprotein I purified from fresh human plasma (protein)
chain: GRTCPKPDDLPFSTVVPLKTFYEPGEEITYSCKPGYVSRGGMRKFICPLTGLWPINTLKCTPRVCPFAGILENGAVRYTTFEYPNTISFSCNTGFYLNGADSAKCTEEGKWSPELPVCAPIICPPPSIPTFATLRVYKPSAGNNSLYRDTAVFECLPQHAMFGNDTITCTTHGNWTKLPECREVKCPFPSRPDNGFVNYPAKPTLYYKDKATFGCHDGYSLDGPEEIECTKLGNWSAMPSCKASCKVPVKKATVVYQGERVKIQEKFKNGMLHGDKVSFFCKNKEKKCSYTEDAQCIDGTIEVPKCFKEHSSLAFWKTDASDVKPC
On to B1, for which the “stimulation of tPA-mediated conversion of Plg to Pls” value with tPA [1] is “not”. Moreover, the ThT fluorescence signal result in data set [2] is given as “increased ThT fluorescence signal”. Moreover, the results for the “binding to tPA” value with tPA [3] (listed as β2GPI purified from fresh human plasma) and with tPA [3] (listed as β2GPI purified from plasma) were “not” and “does not bind”, respectively. Moreover, in the data set with factor XII, the “binding to factor XII” value is given as “not”.

B2: CL-β2gpi: β2gpi exposed to cardiolipin (protein)
chain: GRTCPKPDDLPFSTVVPLKTFYEPGEEITYSCKPGYVSRGGMRKFICPLTGLWPINTLKCTPRVCPFAGILENGAVRYTTFEYPNTISFSCNTGFYLNGADSAKCTEEGKWSPELPVCAPIICPPPSIPTFATLRVYKPSAGNNSLYRDTAVFECLPQHAMFGNDTITCTTHGNWTKLPECREVKCPFPSRPDNGFVNYPAKPTLYYKDKATFGCHDGYSLDGPEEIECTKLGNWSAMPSCKASCKVPVKKATVVYQGERVKIQEKFKNGMLHGDKVSFFCKNKEKKCSYTEDAQCIDGTIEVPKCFKEHSSLAFWKTDASDVKPC
For the molecule B2, the “ability to activate tPA/plasminogen” value with tPA [4] is given as “accelerated”.
